Six substances from patent US6136598 can be followed below.

In assay [1] the target is Mus dunni endogenous virus (MDEV) receptor on M. dunni cells (Mus dunni).
Assay [2] has the same target. The source holds these as a separate data set.
For assay [3] the target is unchanged. This is another data set of the same source.
Assay [4] has as its target Mus dunni endogenous virus (MDEV) receptor on primary human dermal fibroblasts (human).

In the case of “Balb/c 3T3 IdU-induced retrovirus (BIRV) envelope”, the LAPSN titer, BIRV pseudotype on M. dunni cells infected with MDEV (8 × 10^4 on uninfected cells) in assay [1] is 60000 FFU/ml. As to “Mus dunni endogenous virus (MDEV) envelope protein”, the Fold Interference, LAPSN(PD223) titer on dunni/N2 against dunni/N2 + MDEV (fold interference) in assay [2] was > 20000. In assay [1], this substance showed an LAPSN titer, MDEV pseudotype on M. dunni cells infected with MDEV (6 × 10^5 on uninfected cells) of 3 FFU/ml. In assay [3], this substance had a log10 of the fold interference, LAPSN(MDEV) on dunni/LN cells infected with MDEV (log10 of the fold interference) of 5.5. For the same substance, in assay [4], the inhibition of transduction, LAPSN(MDEV) on HDF cells infected with MDEV worked out at 100 fold.

In turn, “envelope protein of NZB xenotropic virus” yielded an LAPSN titer, MDEV pseudotype on M. dunni cells infected with xenotropic virus (6 × 10^5 on uninfected cells) in assay [1] of 400000 FFU/ml.

Take “envelope protein of amphotropic MLV strain 4070A”: the Fold Interference, LAPSN(PA317) titer on dunni/N2 against dunni/N2 + MDEV (fold interference) in assay [2] is 1. As for “envelope protein of amphotropic virus (AM-MLV)”, the LAPSN titer, MDEV pseudotype on M. dunni cells infected with amphotropic virus (6 × 10^5 on uninfected cells) in assay [1] was found to be 400000 FFU/ml. As to “envelope protein of polytropic (MCF) virus strain 98D”, the LAPSN titer, MDEV pseudotype on M. dunni cells infected with polytropic virus (6 × 10^5 on uninfected cells) in assay [1] amounted to 400000 FFU/ml.
